Tests used:
[1] = molecular target: Cys-HA_(Anchorless) peptide, unlabelled (influenza virus); assay: SPR
[2] = molecular target: fluorescein-labelled HA_(Anchorless) peptide (influenza virus); assay: dissociation kinetics of fluorescent peptide-MHC complexes
[3] = molecular target: influenza virus hemagglutinin peptide HA_(305–318), unlabelled (influenza virus); assay: SPR

Row | Substance | dissociation rate in the presence of DM [1] | rate of binding to the peptide surface in the absence of DM [1] | t1/2 in the presence of DM [1] | t1/2 of dissociation [1] | t1/2 of dissociation [2] | dissociation rate in the presence of DM [3] | t1/2 in the presence of DM [3]
1 | soluble mutant HLA-DR1 with β86 glycine changed to tyrosine (from UniProt P01903) (complex) | 8.5e-05 s⁻¹ | 0.119 s⁻¹ | 2.25 h | 3.4 h | 1.8 h |  | 
2 | soluble wild-type HLA-DR1 (empty, no added peptide) (from UniProt P01903) (complex) | 0.0038 s⁻¹ | 0.035 s⁻¹ | 0.05 h |  | 1.8 h | 5.6e-07 s⁻¹ | 344 h

— PMC2213500 (The Journal of Experimental Medicine, 2000)
